PMC4635569 (2015)

Target: human C3d (human, UniProt P01024 1002-1303)
Assay: SPR

human C3d, sequence (P01024 1002-1303): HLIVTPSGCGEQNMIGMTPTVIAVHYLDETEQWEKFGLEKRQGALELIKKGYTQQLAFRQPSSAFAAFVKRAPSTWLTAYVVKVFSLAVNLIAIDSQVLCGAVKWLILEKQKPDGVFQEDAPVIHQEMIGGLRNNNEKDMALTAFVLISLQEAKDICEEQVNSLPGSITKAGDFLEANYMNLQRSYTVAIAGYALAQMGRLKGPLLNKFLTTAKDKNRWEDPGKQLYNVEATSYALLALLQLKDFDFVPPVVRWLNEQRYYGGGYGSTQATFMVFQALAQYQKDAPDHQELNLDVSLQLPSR

B1: (D39)PspCN:FH complex (plasma-derived FH) (complex)
chain 1: EDCNELPPRRNTEILTGSWSDQTYPEGTQAIYKCRPGYRSLGNVIMVCRKGEWVALNPLRKCQKRPCGHPGDTPFGTFTLTGGNVFEYGVKAVYTCNEGYQLLGEINYRECDTDGWTNDIPICEVVKCLPVTAPENGKIVSSAMEPDREYHFGQAVRFVCNSGYKIEGDEEMHCSDDGFWSKEKPKCVEISCKSPDVINGSPISQKIIYKENERFQYKCNMGYEYSERGDAVCTESGWRPLPSCEEKSCDNPYIPNGDYSPLRIKHRTGDEITYQCRNGFYPATRGNTAKCTSTGWIPAPRCTLKPCDYPDIKHGGLYHENMRRPYFPVAVGKYYSYYCDEHFETPSGSYWDHIHCTQDGWSPAVPCLRKCYFPYLENGYNQNYGRKFVQGKSIDVACHPGYALPKAQTTVTCMENGWSPTPRCIRVKTCSKSSIDIENGFISESQYTYALKEKAKYQCKLGYVTADGETSGSITCGKDGWSAQPTCIKSCDIPVFMNARTKNDFTWFKLNDTLDYECHDGYESNTGSTTGSIVCGYNGWSDLPICYERECELPKIDVHLVPDRKKDQYKVGEVLKFSCKPGFTIVGPNSVQCYHFGLSPDLPICKEQVQSCGPPPELLNGNVKEKTKEEYGHSEVVEYYCNPRFLMKGPNKIQCVDGEWTTLPVCIVEESTCGDIPELEHGWAQLSSPPYYYGDSVEFNCSESFTMIGHRSITCIHGVWTQLPQCVAIDKLKKCKSSNLIILEEHLKNKKEFDHNSNIRYRCRGKEGWIHTVCINGRWDPEVNCSMAQIQLCPPPPQIPNSHNMTTTLNYRDGEKVSVLCQENYLIQEGEEITCKDGRWQSIPLCVEKIPCSQPPQIEHGTINSSRSSQESYAHGTKLSYTCEGGFRISEENETTCYMGKWSSPPQCEGLPCKSPPEISHGVVAHMSDSYQYGEEVTYKCFEGFGIDGPAIAKCLGEKWSHPPSCIKTDCLSLPSFENAIPMGEKKDVYKAGEQVTYTCATYYKMDGASNVTCINSRWTGRPTCRDTSCVNPPTVQNAYIVSRQMSKYPSGERVRYQCRSPYEMFGDEEVMCLNGNWTEPPQCKDSTGKCGPPPPIDNGDITSFPLSVYAPASSVEYQCQNLYQLEGNKRITCRNGQWSEPPKCLHPCVISREIMENYNIALRWTAKQKLYSRTGESVEFVCKRGYRLSSRSHTLRTTCWDGKLEYPTCAKR
chain 2: ATENEGSTQAATSSNMAKTEHRKAAKQVVDEYIEKMLREIQLDRRKHTQNVALNIKLSAIKTKYLRELNVLEEKSKDELPSEIKAKLDAAFEKFKKDTLKPGEK
Kd: 2 µM
